{
  "source": "patent US20230002478A1",
  "about": "(published 2023)",
  "binders": {"B1": {"name": "antibody 339-031 (Fc fusion)", "chain": "EVQLVESGGGLVQPGGSLRLSCAASGSTFSINAMGWFRQAPGKEREFVAGITSSGGYTNYADSVKGRFTISADNSKNTAYLQMNSLKPEDTAVYYCAADGVPEYSDYASGPVWGQGTLVTVSS"}, "B2": {"name": "antibody 202-03 (Fc fusion)", "chain": "EVQLVESGGGLVQPGGSLRLSCAASGFTFSPSWMGWFRQAPGKEREFVATINEYGGRNYADSVKGRFTISADNSKNTAYLQMNSLKPEDTAVYYCARVDRDFDYWGQGTLVTVSS"}},
  "key": {"[1]": {"target": "SARS-CoV-2 S1 (SARS-CoV-2, UniProt P0DTC2 16-685)", "experiment": "SPR"}, "[2]": {"target": "SARS-CoV-2 S Trimer (SARS-CoV-2, UniProt P0DTC2 16-1213)", "experiment": "SPR"}},
  "data": [
    {"binder": "B1", "values": [
      {"measurement": "Kd", "setting": "[1]", "result": 0.006, "unit": "nM"},
      {"measurement": "Kd", "setting": "[2]", "result": "< 0.014", "unit": "nM"}
    ]},
    {"binder": "B2", "values": [
      {"measurement": "Kd", "setting": "[1]", "result": 0.011, "unit": "nM"},
      {"measurement": "Kd", "setting": "[2]", "result": 0.299, "unit": "nM"}
    ]}
  ]
}
